Results published in article PMC314469, “Protein Interaction Networks by Proteome Peptide Scanning” (PLoS Biology, 2004).

Molecular target: Sho1 SH3 (SHO1_YEAST), P40073
Experiment: SPOT array

Sho1 SH3 (SHO1_YEAST), P40073, sequence (P40073 295-366): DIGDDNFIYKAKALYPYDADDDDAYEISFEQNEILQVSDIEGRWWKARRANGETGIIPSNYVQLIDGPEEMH

KKLPTGPSKKRQRK [1280-1293 transcriptional regulator]
normalised SPOT signal, Boehringer light units (BLU); mean over the file's lines of this peptide: 203

KKYPRKPKKNLNLG [336-349 Hypothetical ORF]
normalised SPOT signal, Boehringer light units (BLU); mean over the file's lines of this peptide: 224

KLEPENPQKPSNTH [238-251 Hypothetical ORF]
normalised SPOT signal, Boehringer light units (BLU); mean over the file's lines of this peptide: 94.4

KLRPDLPVKNFVVK [641-654 subunit of assimilatory sulfite reductase]
normalised SPOT signal, Boehringer light units (BLU); mean over the file's lines of this peptide: 2110

KNLPLNPSKKLEGK [313-326 Hypothetical ORF]
normalised SPOT signal, Boehringer light units (BLU); mean over the file's lines of this peptide: 206

KNLPTIPIRLSGID [143-156 Hypothetical ORF]
normalised SPOT signal, Boehringer light units (BLU); mean over the file's lines of this peptide: 31800

KPDPESPSKLRHYE [851-864 involved in cell wall biogenesis]
normalised SPOT signal, Boehringer light units (BLU); mean over the file's lines of this peptide: 216

KRTPKIPEKDVKSD [223-236 Hypothetical ORF]
normalised SPOT signal, Boehringer light units (BLU); mean over the file's lines of this peptide: 3960

KSFPPPPLKPGQKT [84-97 Hypothetical ORF]
normalised SPOT signal, Boehringer light units (BLU); mean over the file's lines of this peptide: 85.4

KSSPWSPYKVEKVL [161-174 Mitotic spindle protein involved in chromosome segregation.]
normalised SPOT signal, Boehringer light units (BLU); mean over the file's lines of this peptide: 137

KWEPSTPQRNGPIL [158-171 Hypothetical ORF]
normalised SPOT signal, Boehringer light units (BLU); mean over the file's lines of this peptide: 175

KYDPDNPNKDKLGT
normalised SPOT signal, Boehringer light units (BLU); mean over the file's lines of this peptide: 159

LAPPLSPTKPSPLH [253-266 Hypothetical ORF]
normalised SPOT signal, Boehringer light units (BLU); mean over the file's lines of this peptide: 106

LSIPDLPLRIHNQT [13-26 Hypothetical ORF]
normalised SPOT signal, Boehringer light units (BLU); mean over the file's lines of this peptide: 102

LDDPFTPPRWLHHI
normalised SPOT signal, Boehringer light units (BLU); mean over the file's lines of this peptide: 93

LDYPKAPIKLTMKS [160-173 Hypothetical ORF]
normalised SPOT signal, Boehringer light units (BLU); mean over the file's lines of this peptide: 175

LHGPFKPVKSSNGE [25-38 Hypothetical ORF]
normalised SPOT signal, Boehringer light units (BLU); mean over the file's lines of this peptide: 61.6

LIDPSTPDKAAKKD
normalised SPOT signal, Boehringer light units (BLU); mean over the file's lines of this peptide: 103

LIMPIYPYRLVSTI [525-538 potential membrane glycoprotein with strong similarity to Vth2 and Pep1/Vps10]
normalised SPOT signal, Boehringer light units (BLU); mean over the file's lines of this peptide: 338

LIPPGFPTKNYPPG [185-198 Hypothetical ORF]
normalised SPOT signal, Boehringer light units (BLU); mean over the file's lines of this peptide: 80.2

LLKPETPSKRLVIR [249-262 kinesin-related protein involved in mitosis]
normalised SPOT signal, Boehringer light units (BLU); mean over the file's lines of this peptide: 290

LLPPTDPFRRKHEQ [63-76 ribosomal protein (weak similarity)]
normalised SPOT signal, Boehringer light units (BLU); mean over the file's lines of this peptide: 155

LMPPDSPPRMTENT [1790-1803 "RAP1-interacting factor, involved in establishment of repressed chromatin"]
normalised SPOT signal, Boehringer light units (BLU); mean over the file's lines of this peptide: 121

LNSPDLPERTKLRN [445-458 Septin homolog]
normalised SPOT signal, Boehringer light units (BLU); mean over the file's lines of this peptide: 110

LPAPHRPEKYKERF [67-80 Hypothetical ORF]
normalised SPOT signal, Boehringer light units (BLU); mean over the file's lines of this peptide: 173

LPPPIIPLRKYGHN [693-706 Pho85 kinase inhibitor]
normalised SPOT signal, Boehringer light units (BLU); mean over the file's lines of this peptide: 109

LPPPRSPNRPTLSD [363-376 Hypothetical ORF]
normalised SPOT signal, Boehringer light units (BLU); mean over the file's lines of this peptide: 91.7

LPVPPPPVRPSISF [239-252 RNA polymerase II large subunit]
normalised SPOT signal, Boehringer light units (BLU); mean over the file's lines of this peptide: 172

LPVPQLPPKLLVYP [17-30 RNA polymerase II-associated protein]
normalised SPOT signal, Boehringer light units (BLU); mean over the file's lines of this peptide: 16.2

LQIPPLPLKLLTPV [307-320 encodes the cytoplasmic trifunctional enzyme C1-tetrahydrofolate synthase]
normalised SPOT signal, Boehringer light units (BLU); mean over the file's lines of this peptide: 48.1

LRDPVIPIKLAAEK [2564-2577 translational activator of GCN4 through activation of GCN2 in response to starvation]
normalised SPOT signal, Boehringer light units (BLU); mean over the file's lines of this peptide: 122

LRKPRAPMRNVIIT [449-462 cytochrome oxidase assembly factor]
normalised SPOT signal, Boehringer light units (BLU); mean over the file's lines of this peptide: 184

LRLPEIPPKGDFDV [1327-1340 mitohcondrial RNA polymerase]
normalised SPOT signal, Boehringer light units (BLU); mean over the file's lines of this peptide: 977

LRRPIFPGRDYRHQ [218-231 cdc2+/CDC28 related kinase with positive role in conjugation]
normalised SPOT signal, Boehringer light units (BLU); mean over the file's lines of this peptide: 112

LRSPNTPRRLRKTL [198-211;312-325;376-389;96-109 Hypothetical ORF;Y'-helicase protein 1]
normalised SPOT signal, Boehringer light units (BLU); mean over the file's lines of this peptide: 200

LSKPSKPLKEIRFD [101-114 Hypothetical ORF]
normalised SPOT signal, Boehringer light units (BLU); mean over the file's lines of this peptide: 477

LSLPRLPNKHHWPL [116-129 Hypothetical ORF]
normalised SPOT signal, Boehringer light units (BLU); mean over the file's lines of this peptide: 2570

LSSPSLPPKVNATN [325-338 Guanosine diphosphatase of Golgi membrane]
normalised SPOT signal, Boehringer light units (BLU); mean over the file's lines of this peptide: 88

LSTPSAPAKINNYS [605-618 Hypothetical ORF]
normalised SPOT signal, Boehringer light units (BLU); mean over the file's lines of this peptide: 67

LTLPFGPVKSIWLS [189-202 glucosyltransferase]
normalised SPOT signal, Boehringer light units (BLU); mean over the file's lines of this peptide: 96.7

LTSPKNPIKSVTKF [569-582 translation termination factor eRF3]
normalised SPOT signal, Boehringer light units (BLU); mean over the file's lines of this peptide: 148

LVQPNVPEKHNMST [144-157 Hypothetical ORF]
normalised SPOT signal, Boehringer light units (BLU); mean over the file's lines of this peptide: 182
